T1: IL4 (type II) receptor (UniProt P24394 26-825; P78552 22-427, limits assumed)
T1 sequence (looked up) 1: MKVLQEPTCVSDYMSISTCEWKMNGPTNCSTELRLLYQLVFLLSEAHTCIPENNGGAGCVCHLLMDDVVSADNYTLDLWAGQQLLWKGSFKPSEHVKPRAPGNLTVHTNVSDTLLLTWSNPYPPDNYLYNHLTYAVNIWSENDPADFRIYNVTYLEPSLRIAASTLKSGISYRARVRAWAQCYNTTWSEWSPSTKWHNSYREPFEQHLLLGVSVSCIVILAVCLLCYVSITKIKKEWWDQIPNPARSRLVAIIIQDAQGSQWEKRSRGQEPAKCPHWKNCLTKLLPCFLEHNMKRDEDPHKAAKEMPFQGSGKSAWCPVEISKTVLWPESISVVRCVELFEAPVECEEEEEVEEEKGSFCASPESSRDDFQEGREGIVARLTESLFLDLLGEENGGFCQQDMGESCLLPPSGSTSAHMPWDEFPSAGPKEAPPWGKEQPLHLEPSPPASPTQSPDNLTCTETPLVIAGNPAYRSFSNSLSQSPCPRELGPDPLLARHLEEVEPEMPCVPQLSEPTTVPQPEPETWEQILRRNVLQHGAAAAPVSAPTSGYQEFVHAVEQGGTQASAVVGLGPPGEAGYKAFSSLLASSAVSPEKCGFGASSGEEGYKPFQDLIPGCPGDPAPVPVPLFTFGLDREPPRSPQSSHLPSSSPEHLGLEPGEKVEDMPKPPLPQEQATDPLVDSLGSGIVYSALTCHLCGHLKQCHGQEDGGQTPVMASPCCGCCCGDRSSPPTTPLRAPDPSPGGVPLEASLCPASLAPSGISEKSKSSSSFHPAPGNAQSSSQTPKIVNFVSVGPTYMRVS
T1 sequence (looked up) 2: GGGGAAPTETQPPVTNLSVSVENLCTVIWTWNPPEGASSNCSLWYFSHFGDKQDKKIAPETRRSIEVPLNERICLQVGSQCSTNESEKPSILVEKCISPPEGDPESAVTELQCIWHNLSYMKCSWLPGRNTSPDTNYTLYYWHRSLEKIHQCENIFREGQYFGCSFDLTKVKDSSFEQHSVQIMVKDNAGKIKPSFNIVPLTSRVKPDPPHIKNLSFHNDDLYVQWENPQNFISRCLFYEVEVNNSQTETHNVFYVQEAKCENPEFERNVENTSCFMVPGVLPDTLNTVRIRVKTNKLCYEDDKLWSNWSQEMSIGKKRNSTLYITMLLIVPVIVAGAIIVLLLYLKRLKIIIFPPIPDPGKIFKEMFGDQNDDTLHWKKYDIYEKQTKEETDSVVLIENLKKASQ

T2: IL10 receptor (UniProt Q13651 22-578; Q08334 20-325, limits assumed)
T2 sequence (looked up) 1: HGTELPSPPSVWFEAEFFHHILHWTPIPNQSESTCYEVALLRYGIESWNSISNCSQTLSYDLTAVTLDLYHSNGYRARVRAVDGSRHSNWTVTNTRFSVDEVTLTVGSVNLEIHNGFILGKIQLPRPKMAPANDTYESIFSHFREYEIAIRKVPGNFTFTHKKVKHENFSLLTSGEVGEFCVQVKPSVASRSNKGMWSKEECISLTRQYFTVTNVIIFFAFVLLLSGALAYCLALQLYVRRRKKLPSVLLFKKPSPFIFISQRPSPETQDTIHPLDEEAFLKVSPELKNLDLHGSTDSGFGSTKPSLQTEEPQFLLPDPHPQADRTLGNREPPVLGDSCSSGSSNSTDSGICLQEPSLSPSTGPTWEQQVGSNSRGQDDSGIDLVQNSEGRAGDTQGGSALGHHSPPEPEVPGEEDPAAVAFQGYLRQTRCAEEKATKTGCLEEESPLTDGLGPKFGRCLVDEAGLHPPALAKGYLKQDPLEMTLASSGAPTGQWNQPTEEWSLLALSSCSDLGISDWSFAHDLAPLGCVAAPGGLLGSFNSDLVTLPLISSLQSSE
T2 sequence (looked up) 2: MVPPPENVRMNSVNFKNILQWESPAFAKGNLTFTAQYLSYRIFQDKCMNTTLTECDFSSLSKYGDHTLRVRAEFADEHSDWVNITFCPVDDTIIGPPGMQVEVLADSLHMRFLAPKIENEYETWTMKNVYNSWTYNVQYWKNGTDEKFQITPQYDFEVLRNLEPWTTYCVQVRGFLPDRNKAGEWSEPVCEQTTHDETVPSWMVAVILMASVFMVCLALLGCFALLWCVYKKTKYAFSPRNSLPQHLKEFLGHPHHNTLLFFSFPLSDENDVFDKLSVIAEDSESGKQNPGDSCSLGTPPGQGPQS


Columns and labels:
Assay in all cases: cell-based or functional assay
IL4 (type II) receptor = target: T1, IL4 (type II) receptor
IL10 receptor = target: T2, IL10 receptor
mIL4Ra/mIL13Ra2 = mIL4Ra/mIL13Ra2 (mouse, UniProt P16382 26-257; O88786 22-355)
mIL4Ra/mIL13Ra2, sequence (P16382 26-257, chain 1 of 2): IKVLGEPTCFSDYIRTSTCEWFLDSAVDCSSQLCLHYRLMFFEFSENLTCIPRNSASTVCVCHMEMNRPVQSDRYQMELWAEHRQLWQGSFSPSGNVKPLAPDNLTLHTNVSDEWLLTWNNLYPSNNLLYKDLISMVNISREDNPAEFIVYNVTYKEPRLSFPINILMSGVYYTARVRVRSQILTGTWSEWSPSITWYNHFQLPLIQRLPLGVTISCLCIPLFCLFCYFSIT
mIL4Ra/mIL13Ra2, sequence (O88786 22-355, chain 2 of 2): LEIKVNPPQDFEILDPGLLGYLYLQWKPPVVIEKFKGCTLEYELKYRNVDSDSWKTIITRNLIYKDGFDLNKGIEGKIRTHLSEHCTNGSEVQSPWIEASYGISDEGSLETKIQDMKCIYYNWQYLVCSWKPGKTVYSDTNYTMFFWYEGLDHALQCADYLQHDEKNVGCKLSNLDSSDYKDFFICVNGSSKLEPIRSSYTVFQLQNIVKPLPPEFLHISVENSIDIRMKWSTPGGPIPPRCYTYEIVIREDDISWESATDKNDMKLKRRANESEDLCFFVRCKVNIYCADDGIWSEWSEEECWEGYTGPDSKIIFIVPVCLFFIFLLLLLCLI

Binder | HEK-Blue IL10 EC50 (STAT-3 mediated SEAP expression) (IL10 receptor) | other results
IL4-Fc (Fc fusion) HKCDITLQEIIKTLNSLTEQKTLCTELTVTDIFAASKNTTEKETFCRAATVLRQFYSHHEKDTRCLGATAQQFHRHKQLIRFLKRLDRNLWGLAGLNSCPVKEANQSTLENFLERLKTIMREKYSKCSSGSGGGGSGTCPPCPAPELLGGPSVFLFPPKPKDTLMISRTPEVTCVVVDVSHEDPEVKFNWYVDGVEVHNAKTKPREEQYNSTYRVVSVLTVLHQDWLNGKEYKCKVSNKALPAPIEKTISKAKGQPREPQVCTLPPSRDELTKNQVSLSCAVKGFYPSDIAVEWESNGQPENNYKTTPPVLDSDGSFFLVSKLTVDKSRWQQGNVFSCSVMHEALHNHYTQKSLSLSPGK |  | HEK-Blue IL4/13 EC50 (STAT6-induced SEAP expression) (IL4 (type II) receptor): 20.1 pM
IL4-10M(J) mouse Fc (Fc fusion) chain 1: HKCDITLQEIIKTLNSLTEQKTLCTELTVTDIFAASKNTTEKETFCRAATVLRQFYSHHEKDTRCLGATAQQFHRHKQLIRFLKRLDRNLWGLAGLNSCPVKEANQSTLENFLERLKTIMREKYSKCSSGSGGGGSGTCKPCICTVPEVSSVFIFPPKPKDVLTITLTPKVTCVVVAISKDDPEVQFSWFVDDVEVHTAQTKPREEQINSTFRSVSELPIMHQDWLNGKEFKCRVNSAAFPAPIEKTISKTKGRPKAPQVYTIPPPKKQMAKDKVSLTCMITNFFPEDITVEWQWNGQPAENYKNTQPIMKTDGSYFVYSKLNVQKSNWEAGNTFTCSVLHEGLHNHHTEKSLSHSPGK chain 2: SPGQGTQSENSCTHFPGNLPNMLRDLRDAFSRVKTFFQMKDQLDNLLLKESLLEDFKGYLGCQALSEMIQFYLEEVMPQAENQDPDIKAHVNSLGENLKTLRLRLRRCHRFLPCENGGGSGGKSKAVEQVKNAFNKLQEKGIYKAMSEFDIFINYIEAYMTMKIRNTGSGGGGSGTCKPCICTVPEVSSVFIFPPKPKDVLTITLTPKVTCVVVAISKDDPEVQFSWFVDDVEVHTAQTKPREEQINSTFRSVSELPIMHQDWLNGKEFKCRVNSAAFPAPIEKTISKTKGRPKAPQVYTIPPPKEQMAKDKVSLTCMITNFFPEDITVEWQWNGQPAENYKNTQPIMDTDGSYFVYSELNVQKSNWEAGNTFTCSVLHEGLHNHHTEDSLSHSPGK | 520 pM | 
IL4-10 fusion (wt, dimer) (ligand) HKCDITLQEIIKTLNSLTEQKTLCTELTVTDIFAASKNTTEKETFCRAATVLRQFYSHHEKDTRCLGATAQQFHRHKQLIRFLKRLDRNLWGLAGLNSCPVKEANQSTLENFLERLKTIMREKYSKCSSGSGGGGSGTSPGQGTQSENSCTHFPGNLPNMLRDLRDAFSRVKTFFQMKDQLDNLLLKESLLEDFKGYLGCQALSEMIQFYLEEVMPQAENQDPDIKAHVNSLGENLKTLRLRLRRCHRFLPCENKSKAVEQVKNAFNKLQEKGIYKAMSEFDIFINYIEAYMTMKIRN | 28.9 pM | 
IL10M(J) (ligand) SPGQGTQSENSCTHFPGNLPNMLRDLRDAFSRVKTFFQMKDQLDNLLLKESLLEDFKGYLGCQALSEMIQFYLEEVMPQAENQDPDIKAHVNSLGENLKTLRLRLRRCHRFLPCENGGGSGGKSKAVEQVKNAFNKLQEKGIYKAMSEFDIFINYIEAYMTMKIRN | 63.4 pM | 
IL10M(S) (ligand) KSKAVEQVKNAFNKLQEKGIYKAMSEFDIFINYIEAYMTMKIRNGSGGGGSGTSPGQGTQSENSCTHFPGNLPNMLRDLRDAFSRVKTFFQMKDQLDNLLLKESLLEDFKGYLGCQALSEMIQFYLEEVMPQAENQDPDIKAHVNSLGENLKTLRLRLRRCHRFLPCEN | 149 pM | 
IL4-13 (mouse) (ligand) HHHHHHIHGCDKNHLREIIGILNEVTGEGTPCTEMDVPNVLTATKNTTESELVCRASKVLRIFYLKHGKTPCLKKNSSVLMELQRLFRAFRCLDSSISCTMNESKSTSLKDFLESLKSIMQMDYSGSGGGGSGTAPGPVPRSVSLPLTLKELIEELSNITQDQTPLCNGSMVWSVDLAAGGFCVALDSLTNISNCNAIYRTQRILHGLCNRKAPTTVSSLPDTKIEVAHFITKLLSYTKQLFRHGPF |  | Heterologous clustering mIL4Ra/mIL13Ra2 EC50 (NanoBiT enzyme complementation) (mIL4Ra/mIL13Ra2): 187 pM
IL4-13 Fc (mouse) (Fc fusion) chain 1: HIHGCDKNHLREIIGILNEVTGEGTPCTEMDVPNVLTATKNTTESELVCRASKVLRIFYLKHGKTPCLKKNSSVLMELQRLFRAFRCLDSSISCTMNESKSTSLKDFLESLKSIMQMDYSGSGGGGSGTCKPCICTVPEVSSVFIFPPKPKDVLTITLTPKVTCVVVAISKDDPEVQFSWFVDDVEVHTAQTKPREEQINSTFRSVSELPIMHQDWLNGKEFKCRVNSAAFPAPIEKTISKTKGRPKAPQVYTIPPPKKQMAKDKVSLTCMITNFFPEDITVEWQWNGQPAENYKNTQPIMKTDGSYFVYSKLNVQKSNWEAGNTFTCSVLHEGLHNHHTEKSLSHSPGK chain 2: APGPVPRSVSLPLTLKELIEELSNITQDQTPLCNGSMVWSVDLAAGGFCVALDSLTNISNCNAIYRTQRILHGLCNRKAPTTVSSLPDTKIEVAHFITKLLSYTKQLFRHGPFTGSGGGGSGTCKPCICTVPEVSSVFIFPPKPKDVLTITLTPKVTCVVVAISKDDPEVQFSWFVDDVEVHTAQTKPREEQINSTFRSVSELPIMHQDWLNGKEFKCRVNSAAFPAPIEKTISKTKGRPKAPQVYTIPPPKEQMAKDKVSLTCMITNFFPEDITVEWQWNGQPAENYKNTQPIMDTDGSYFVYSELNVQKSNWEAGNTFTCSVLHEGLHNHHTEDSLSHSPGK |  | Heterologous clustering mIL4Ra/mIL13Ra2 EC50 (NanoBiT enzyme complementation) (mIL4Ra/mIL13Ra2): 1100 pM
IL4-10M(J) (ligand) HKCDITLQEIIKTLNSLTEQKTLCTELTVTDIFAASKNTTEKETFCRAATVLRQFYSHHEKDTRCLGATAQQFHRHKQLIRFLKRLDRNLWGLAGLNSCPVKEANQSTLENFLERLKTIMREKYSKCSSGSGGGGSGTSPGQGTQSENSCTHFPGNLPNMLRDLRDAFSRVKTFFQMKDQLDNLLLKESLLEDFKGYLGCQALSEMIQFYLEEVMPQAENQDPDIKAHVNSLGENLKTLRLRLRRCHRFLPCENGGGSGGKSKAVEQVKNAFNKLQEKGIYKAMSEFDIFINYIEAYMTMKIRN | 77.8 pM | 
IL4-10M(S) (ligand) KSKAVEQVKNAFNKLQEKGIYKAMSEFDIFINYIEAYMTMKIRNGSGGGGSGTSPGQGTQSENSCTHFPGNLPNMLRDLRDAFSRVKTFFQMKDQLDNLLLKESLLEDFKGYLGCQALSEMIQFYLEEVMPQAENQDPDIKAHVNSLGENLKTLRLRLRRCHRFLPCENGSGGGGSGTHKCDITLQEIIKTLNSLTEQKTLCTELTVTDIFAASKNTTEKETFCRAATVLRQFYSHHEKDTRCLGATAQQFHRHKQLIRFLKRLDRNLWGLAGLNSCPVKEANQSTLENFLERLKTIMREKYSKCSSHHHHHH | 117 pM | 

From patent US20260132178A1 (SYNERKINE PHARMA B V, published 2026)
